Data reported in patent publication US7301014B2, “Nucleic acid molecule encoding a novel estrogen receptor beta variant” (Wyeth, priority 2002, dated 2007).
“Also recorded” adds a separate entry of the source.

B1: ERβ: wild-type estrogen receptor beta, expressed from expression plasmid (protein, UniProt Q92731 1-530, looked up)
Estrogen receptor beta: MDIKNSPSSLNSPSSYNCSQSILPLEHGSIYIPSSYVDSHHEYPAMTFYSPAVMNYSIPSNVTNLEGGPGRQTTSPNVLWPTPGHLSPLVVHRQLSHLYAEPQKSPWCEARSLEHTLPVNRETLKRKVSGNRCASPVTGPGSKRDAHFCAVCSDYASGYHYGVWSCEGCKAFFKRSIQGHNDYICPATNQCTIDKNRRKSCQACRLRKCYEVGMVKCGSRRERCGYRLVRRQRSADEQLHCAGKAKRSGGHAPRVRELLLDALSPEQLVLTLLEAEPPHVLISRPSAPFTEASMMMSLTKLADKELVHMISWAKKIPGFVELSLFDQVRLLESCWMEVLMMGLMWRSIDHPGKLIFAPDLVLDRDEGKCVEGILEIFDMLLATTSRFRELKLQHKEYLCVKAMILLNSSMYPLVTATQDADSSRKLAHLLNAVTDALVWVIAKSGISSQQQSMRLANLLMLLSHVRHASNKGMEHLLNMKCKNVVPVYDLLLEMLNAHVLRGCKSSITGSECSPAEDSKSKEGSQNPQSQ
B2: ERβcx2: novel human estrogen receptor beta variant; C-terminal 61 amino acids of wild-type ERβ replaced by unique 7 amino acids; tested as expression plasmid (protein)
chain: KVFSQLLSQDMNIKNSPSSLNSPSSYNCSQSILPLEHGSIYIPSSYVDSHHEYPAMTFYSPAVMNYSIPSNVTNLEGGPGRQTTSPNVLWPTPGHLSPLVVHRQLSHLYAEPQKSPWCEARSLEHTLPVNRETLKRKVSGNRCASPVTGPGSKRDAHFCAVCSDYASGYHYGVWSCEGCKAFFKRSIQGHNDYICPATNQCTIDKNRRKSCQACRLRKCYEVGMVKCGSRRERCGYRLVRRQRSADEQLHCAGKAKRSGGHAPRVRELLLDALSPEQLVLTLLEAEPPHVLISRPSAPFTEASMMMSLTKLADKELVHMISWAKKIPGFVELSLFDQVRLLESCWMEVLMMGLMWRSIDHPGKLIFAPDLVLDRDEGKCVEGILEIFDMLLATTSRFRELKLQHKEYLCVKAMILLNSSMYPLVTATQDADSSRKLAHLLNAVTDALVWVIAKSGISSQQQSMRLANLLMLLSHVRHARLYIWALKMFAALKQILRPAFPSSRECFPYCVPLMSMALSQRVHDINKVFHYFGFXKKKKKKKXXXXKKGRPLRIPR
modifications: not fully specified; X: residue not identified in the source
notes: novel human estrogen receptor beta variant; C-terminal 61 amino acids of wild-type ERβ replaced by unique 7 amino acids; tested as expression plasmid

Key:
Type in all cases: cell-based, human
[1] = test system: ERE-tk-Luciferase reporter in HepG2 cells; experiment: Transactivation of ERE-tk-Luciferase reporter by estrogen receptor variants, transient transfection; parameters: dose or concentration left out as unconfirmed; settings: HepG2 cells transfected with receptor expression plasmid; stimulation with E2 (17b-estradiol) vs ethanol vehicle, 24 hrs; normalized to β-galactosidase
Source text: (§1) The estrogen response element (ERE) containing reporter, ERα, and ERβ expression plasmids have been described previously (Bodine, et al J Cell Biochem 1997; 65: 368-387 and Bhat et al. J Steroid Biochem Mol Biol 1998; 67(3):233-40). The ERβcx2 expression plasmid was constructed by cloning a BstXI/Xbal fragment of the original ERβcx2 clone (ef1-3/pCR 2.1) into the ERβ expression plasmid digested with the same restriction enzymes. The sequence of the clone was confirmed by sequence analysis. An SV40-β gal plasmid (Promega, Madison, Wis.) was used to normalize transfections.
Cells were transfected with lipofectamine 2000 and incubated in the presence or absence of estrogen for 24 hrs. Luciferase expression was monitored in the cell lysates. Transient transfections were performed in HepG2 cells maintained in DMEM supplemented with 10% fetal bovine serum. Twenty-four hours prior to transfection, cells are seeded in phenol red-free (PRF) DMEM containing 10% charcoal-stripped serum (csFBS), into collagen-coated 6 well plates (Biocoat, Becton Dickenson). […] 24 hrs later, […] luciferase activity was quantitated in an automated ML 1000 Luminometer (Dynex Technologies, Chantilly, Va.,). β-galactosidase activity was measured in cell lysates to normalize for differences in transfection efficiency. […]

ERβ signaling pathway = experiment: Cotransfection of ERE-tk reporter with ERβ and increasing amounts of ERβcx2 expression plasmid (dominant negative activity); settings: ERE-tk reporter cotransfected with ERβ; E2 ligand activation; luciferase measured in 48 hrs; FIG. 10
Source text: as §1
(§2) Cells were transfected with lipofectamine 2000 and incubated in the presence or absence of estrogen for 24 hrs. Luciferase expression was monitored in the cell lysates. Transient transfections were performed in HepG2 cells maintained in DMEM supplemented with 10% fetal bovine serum. […] 24 hrs later, cells were and luciferase activity was quantitated in an automated ML 1000 Luminometer (Dynex Technologies, Chantilly, Va.,). β-galactosidase activity was measured in cell lysates to normalize for differences in transfection efficiency. […]
(§3) In these experiments, the ERE-tk reporter was cotransfected with either ERα or ERβ and increasing amounts of the ERβcx2 expression plasmid. Luciferase acitivity was measured in 48 hrs. […]

ERα signaling pathway = experiment: Cotransfection of ERE-tk reporter with ERα and increasing amounts of ERβcx2 expression plasmid (dominant negative activity); settings: ERE-tk reporter cotransfected with ERα; E2 ligand activation; luciferase measured in 48 hrs; FIG. 9
Source text: as §1, §2, §3

Molecule	ligand-activated transcription of the ERE-reporter (luciferase activity), induction [1]	signaling through E2-activated ERβ (luciferase) with increasing amounts of the ERβcx2 expression construct (ERβ signaling pathway)	luciferase activity of E2-activated ERα with increasing amounts of the ERβcx2 expression construct (ERα signaling pathway)
B1	8.0 fold		
B2	unable to induce transcription; also recorded: unchanged	reduced	diminished
